Experiments:
[1] = test system: BLM-induced pulmonary fibrosis model mice; experiment: Bleomycin-induced pulmonary fibrosis model; type: in vivo, mouse; conditions: vs isotype-control antibody group (isotype-control vs disease control group); day 21; Bonferroni, P<0.05
Experimental: Pathogen-free 7 weeks old female C57BL/6J mice were obtained from Japan SLC, Inc. (Japan). At day 0, 60 mice were induced to develop pulmonary fibrosis by a single intratracheal administration of bleomycin sulphate (BLM, Nippon Kayaku, Japan) in saline at a dose of 3 mg/kg, in a volume of 50 μL per animal using Microsprayer® (Penn-Century, USA).
BLM-induced pulmonary fibrosis model mice were randomized into 4 groups of 12 mice based on the body weight on the day before the start of treatment.
Group 3 (M1043 Antibody): Twelve BLM-induced pulmonary fibrosis model mice were intravenously administered vehicle supplemented with M1043 at a dose of 10 mg/kg twice weekly at day 7, 10, 14 and 17.
Group 4 (TRC105 human/mouse chimeric antibody): Twelve BLM-induced pulmonary fibrosis model mice were intravenously administered vehicle supplemented with TRC105 at a dose of 10 mg/kg twice weekly at day 7, 10, 14 and 17.
Group 5 (BIBF1120 inhibitor for Idiopathic Pulmonary Fibrosis—positive control, Boehringer Ingelheim): Twelve BLM-induced pulmonary fibrosis model mice were orally administered 1% CMC supplemented with BIBF1120 at a dose of 100 mg/kg once daily from day 7 to 21. […]
Histological analysis of lung sections was conducted by practitioners who are not aware of the Group identity. Masson's Trichrome staining is conducted and an Ashcroft Score estimate was determined. […]

[2] = test system: CCl4-induced liver fibrosis model mice; experiment: Carbon tetrachloride-induced liver fibrosis model; type: in vivo, mouse; conditions: for Percentage of fibrosis area (Sirius red-positive area), comparison with isotype-matched antibody group: P<0.05, Bonferroni
Experimental: Seven-week-old female C57BL/6J mice (17˜21 g) were obtained from Japan SLC (Japan).
Mice were divided into 3 groups of 8 mice based on their body weight on the day before the start of the treatment (day 13).
Mice were intraperitoneally administered 5% CCl4 (Sigma-Aldrich, USA) in mineral oil (Sigma-Aldrich) in a volume of 100 μL twice a week (day 0, 4, 7, 11, 14, 18, 21 and 25) after acclimation.
To visualize collagen deposition, sections were cut from paraffin blocks of left lateral liver tissue prefixed in Bouin's solution and stained with picro-Sirius red solution (Waldeck, Germany). For quantitative analysis of fibrosis area, bright field images of Sirius red-stained section were randomly captured using a digital camera (DFC280; Leica Microsystems, Germany) at 100-fold magnification, and the Sirius red-stained positive areas in 5 field/section were measured using ImageJ software (National Institute of Health, USA). The quantification was done in a blinded fashion.
Statistical analyses were performed using Bonferroni Multiple comparison test on GraphPad Prism 4 (GraphPad Software, USA). P values<0.05 were considered statistically significant. Results were expressed as mean±SD.
Eight CCl4-induced liver fibrosis model mice were intravenously administered vehicle supplemented with M1043 Antibody at a dose of 10 mg/kg twice weekly at day 14, 17, 21 and 24. All animals were sacrificed on day 28.

[3] = 10 mg/kg IV twice weekly, day 28, mean ± SD, n = 8
[4] = isotype-matched antibody vs disease control, M1043 Antibody vs isotype-matched antibody

B1: M1043: rat IgG1 antibody that binds mouse endoglin and competitively inhibits mouse BMP binding; VH SEQ ID NO: 124, VL SEQ ID NO: 125 (antibody, V domains shown)
VH: QVQLQQSGAELVKPGSSVKISCKASGYTFTSYDMHWIKQQPGNGLEWIGWIYPGNGNTKYNQKFNGKATLTADKSSSTAYMQLSSLTSEDSAVYFCARGKFGVGDYWGQGVMVTVSS
VL: DTVLTQSPALAVSPGERVSISCRASEGVNSYMHWYQQKPGQQPKLLIYIASNLASGVPARFSGSGSGTDFTLTIDPVEADDTATYFCQQSWNDPYTFGAGTKLELKR
For B1, the “Ashcroft score, comparison between groups” value [1] was “no significant difference”, the “General condition / abnormal findings” value ([2]; 10 mg/kg IV twice weekly) was “no abnormal findings were observed” and the “Body weight on the day of sacrifice” value [2, 3] was 20.5 ± 0.7 g. The Liver weight [2, 3] was 896 ± 48 mg, the “Sirius red-positive area (fibrosis area)” value [2, 3] was 2.07 ± 0.52% and the “Percentage of fibrosis area (Sirius red-positive area), comparison with isotype-matched antibody group” value ([2]; listed as Antibody M1043) was “significant reduction of collagen deposition”. For the same molecule, the “Percentage of fibrosis area (Sirius red-positive area), comparison with isotype-matched antibody group” value ([2]; listed as M1043 Antibody) was “significantly decreased”, the “Collagen deposition and bridging fibrosis in Sirius red-stained liver sections” value ([2]; histology, day 28) was “lower collagen deposition with less frequent formation of bridging fibrosis” and the “Body weight changes, comparison between groups” value [2, 4] was “no significant differences”. For the same molecule, the “Body weight on the day of sacrifice, comparison between groups” value [2, 4] was “no significant differences” and the “Mean liver weight, comparison between groups” value ([2]; isotype-matched antibody vs disease-control, M1043 Antibody vs isotype-matched antibody) was “no significant difference in mean body weight”.

Reference: patent publication US9926375B2, “Anti-endoglin antibodies and uses thereof” (Tracon Pharmaceuticals, Inc., priority 2014, dated 2018)
